According to patent US20090068234A1 (US Dept. of Health and Human Services, published 2009):

Molecular target: OFA alone (control OFA construct, not fused to a chemoattractant) (murine, UniProt P14206 1-295)
Experiment: ligand binding-internalization assay on iDC, flow cytometry (data not shown)
Procedure: The ligand binding-internalization assays were performed with iDC or splenocytes (1×10⁵) blocked with mouse serum in PBS containing 2% BSA. Fusion proteins (10-50 μg/ml) were incubated in complete medium for Ih at 37° C. or at 4° C. To detect bound proteins, the cells were incubated with anti-c-myc mAb or isotype-matched, purified mouse IgG1, followed with α-mouse Ig-FITC mAb incubation (Jackson ImmunoResearch Laboratory, Bar Harbor, Me.) for 20 min each, and then fixed with 1% paraformaldehyde. The binding-internalization was assessed via flow cytometry on a FACScan (Becton Dickinson, Franklin Lakes, N.J.) using CellQuest software.

B1: CCR6 expressed on murine BM iDC (receptor)
chain: MNSTESYFGTDDYDNTEYYSIPPDHGPCSLEEVRNFTKVFVPIAYSLICVFGLLGNIMVVMTFAFYKKARSMTDVYLLNMAITDILFVLTLPFWAVTHATNTWVFSDALCKLMKGTYAVNFNCGMLLLACISMDRYIAIVQATKSFRVRSRTLTHSKVICVAVWFISIIISSPTFIFNKKYELQDRDVCEPRYRSVSEPITWKLLGMGLELFFGFFTPLLFMVFCYLFIIKTLVQAQNSKRHRAIRVVIAVVLVFLACQIPHNMVLLVTAVNTGKVGRSCSTEKVLAYTRNVAEVLAFLHCCLNPVLYAFIGQKFRNYFMKIMKDVWCMRRKNKMPGFLCARVYSESYISRQTSETVENDNASSFTM
notes: whole, on cells
Question: Does B1 bind?
Answer: no binding
